Measurements: the DeepSol protein solubility set

Experiment: soluble on expression in E. coli; label from the status in PepcDB or PDB records

| Sequence | soluble on expression in E. coli |
| --- | --- |
| MSLIFLDYDGTLVPIIMNPEESYADAGLLSLISDLKERFDTYIVTGRSPEEISRFLPLDINMICYHGACSKINGQIVYNNGSDRFLGVFDRIYEDTRSWVSDFPGLRIYRKNLAVLYHLGLMGADMKPKLRSRIEEIARIFGVETYYGKMIIELRVPGVNKGSAIRSVRGERPAIIAGDDATDEAAFEANDDALTIKVGEGETHAKFHVADYIEMRKILKFIEMLGVQKKQEGHHHHHH | soluble |
| MGSDKIHHHHHHMEKKVICQDIFWSCDGTSFVSVHNDFGIRQYLVPEESNTDKLNRNLLLPFTRFFRNQSIVSCAIDPFYTLYNENSDRLAGDRIVVGGKNFPLQLYSLMDGQCILSYDTMNKINGEYETVYSVKIDVESRVYTGSCRNKVAIYDKSRRDAVWMNQSTKKASKGRQSIISCFEEQPMGGQALSRGSLLCGSYANEMFQVDCRHQRLERLNYTRTVAGGIVQILTSDNGRYVYVVRRNSDAISIYDRRNLQHELNVLRLPFRIHHNSAKLKAYIDTAYGLSMGTPQGTILNWGRDLVEFGGVPSHNSVEDPLITSIPPESEWRTNLDSTIPATVVKNCPGDPELFALSHGGTISLCRFGG | not soluble |
| MGSDKIHHHHHHMLLILDEYFKEHPIKLRIVDGLYTSGISIRNGRFFTNDVEISVSEIASAFNVNRKTVYETIKLVESNDSLRRVMSSIKPMADIADVALLTGNQIITAYTTLGHFPYVFKEIFNTISKYGCYIREVFSRNMSQEESFIRIIFYRPIPDRIIGQIRKIDGVKSLEVRVNMDTDQILCNNCDIKICPTKYISDVEKEELGDL | not soluble |
| MAYDIERYLDIRGAGDPTYGPTGELAFTLGTTGTAQVWALGAPGAWPTQLTFHDERVQWASFSPTREELAYGMDTGGDEFTQLHRVSGDGSEDVQLTAFPDAKHDWGGWSHDGDRIAYTANRRDASRFDVYVQGRDEAGANADCVRVGDTFDLPSVVGWSPSDDRLLVVDTHSNFDQDVAVLDVDTGEITRATAGLDADTRFSWVAWAPDGGGVYVTTDHDADTRYLGLLDPETGAISRVADGGDWPIEAVVTAHDAGRLAYVRNRDGYSELTIADAAGTTLTEQPTPELPDGVIRGLSWGPDGDTLAVVVSAATENPNVFVVDVATGAATQWTNAATAGIPKSTFREPELVRYETFDGREIPALFTRPDGDGPHPVIVDFHGGPEGQRRPSFLSLRQYFVDNGYAVFEPNVRGSSGYGATYMNLDNVRNRMDAVADGKAGVEWLTARTDIDADRVVAYGGSYGGFMVLASLTEYPELWAAGVDIVGIANFVTFLENTGDWRREHRESEYGSLDADREFLESISPTNNADRIRAPLLVLHGANDPRVPVGEAERIVEQASAHVPVEKHVFDDEGHGFSKRANKQAAYRAVVDFLDDHALEHHHHHH | not soluble |
| MAKVLVLGGGIGGTEAAIALRKEGFEVSLVSDKPYLYIYPISIWIPTGEAKFEDVIIPLDKFARRWGVNLIIDRVEKIDAQNKKVHLKSGKVLEDFDYLVVALGQTKRKEKGLENTLSICGSPEEALKIRDRLVELIAKGEGKIAFGFGGNPKDKTAVRGRPVFEVLFNVDYHLSRLGIRDRFELTFFAPMPKPGERLGEKALKMLDQMFQKYGIKKITGKKIKEFKENGVLFEDDTFLESDLIIYTPAGWGNPVFADSGFPLNEAGFIKIEETCQVVGYEWAYAIGDSAAIEGPPWTAKQGHLAEVMGHITAHNIAVKEGKKSGELKSYKEHINILCLMDMGWRGGGFAYRSDKRAMLIPIPVLGHIMKKAWGVYYKLYKLGKIPKII | not soluble |
| MALYQRWRCLRLQGLQACRLHTAVVSTPPRWLAERLGLFEELWAAQVKRLASMAQKEPRTIKISLPGGQKIDAVAWNTTPYQLARQISSTLADTAVAAQVNGEPYDLERPLETDSDLRFLTFDSPEGKAVFWHSSTHVLGAAAEQFLGAVLCRGPSTEYGFYHDFFLGKERTIRGSELPVLERICQELTAAARPFRRLEASRDQLRQLFKDNPFKLHLIEEKVTGPTATVYGCGTLVDLCQGPHLRHTGQIGGLKLLSNSSSLWRSSGAPETLQRVSGISFPTTELLRVWEAWREEAELRDHRRIGKEQELFFFHELSPGSCFFLPRGTRVYNALVAFIRAEYAHRGFSEVKTPTLFSTKLWEQSGHWEHYQEDMFAVQPPGSDRPPSSQSDDSTRHITDTLALKPMNCPAHCLMFAHRPRSWRELPLRLADFGALHRAEASGGLGGLTRLRCFQQDDAHIFCTTDQLEAEIQSCLDFLRSVYAVLGFSFRLALSTRPSGFLGDPCLWDQAEQVLKQALKEFGEPWDLNSGDGAFYGPKIDVHLHDALGRPHQCGTIQLDFQLPLRFDLQYKGQAGALERPVLIHRAVLGSVERLLGVLAESCGGKWPLWLSPFQVVVIPVGSEQEEYAKEAQQSLRAAGLVSDLDADSGLTLSRRIRRAQLAHYNFQFVVGQKEQSKRTVNIRTRDNRRLGEWDLPEAVQRLVELQNTRVPNAEEIF | soluble |
| LLTPQYISEAKIYVLSKETTLTSLADLQMGTQLTQDYKELIGSRPVMQEVINTLNLDITYRQLAEKLKLENPKDTRILYLTVTDPNPYMAKAIVDEIANAASDYIGEIMEMTPPKLIEDGMVATVQTSPNVKKN | not soluble |
| MGSDKIHHHHHHMKVIIVDDDKAMFLILKKMLSKIHNVEVIGTFDRLSTTMEFLENNEVDLAFLDIKISGDNGIDLAKQIVNLKKQINIVFISSHKEFALDSFDVFPLDYIVKPVSQEKLERAIDRASKVIIKSGEEEYKAFIYCFGGLEVRGRNNESVKWISTKSMELFSYLVINSGRSISRGRVIKDIFEEMELKDVESYLNTIVYQLRKALSPLGLKKIITFDSQGYSFDFKDVYVDYIDFISGVESIKEINKDNIDRAKQLVYLYKGDLFDDKEYIWAVGEKEYASNLYSKFLGKVCSWYLENDLINDAYSMGKKLIQYNELDSEVNKIFMNILAARRDKISLNKHYERYAKVLFRELGVKVEDSVEELYRKLIKVLR | not soluble |
| MDKLGENLNKALNKLKAAAFVDKKLIKEVIKDIQRALIQADVNVKLVLKMSKEIERRALEEKTPKGLSKKEHIIKIVYEELVKLLGEEAKKLELNPKKQNVILLVGIQGSGKTTTAAKLARYIQKRGLKPALIAADTYRPAAYEQLKQLAEKIHVPIYGDETRTKSPVDIVKEGMEKFKKADVLIIDTAGRHKEEKGLLEEMKQIKEITNPDEIILVIDGTIGQQAGIQAKAFKEAVGEIGSIIVTKLDGSAKGGGALSAVAETKAPIKFIGIGEGIDDLEPFDPKKFISRLLGMGDLESLLEKAEDMVDEKTEESIDAIMRGKFTLNELMTQLEAIENMGSMKKILSMIPGFGGAMPKELSHLTEAKIKKYKVIISSMTKEERENPKIIKASRIRRIARGSGTTENDVREVLRYYETTKNAIDKLHHHHHH | soluble |
| AQSVPWGISRVQAPAAHNRGLTGSGVKVAVLDTGISTHPDLNIRGGASFVPGEPSTQDGNGHGTHVAGTIAALNNSIGVLGVAPNAELYAVKVLGASGSGSVSSIAQGLEWAGNNGMHVANLSLGSPSPSATLEQAVNSATSRGVLVVAASGNSGAGSISYPARYANAMAVGATDQNNNRASFSQYGAGLDIVAPGVNVQSTYPGSTYASLNGTSMATPHVAGAAALVKQKNPSWSNVQIRNHLKNTATSLGSTNLYGSGLVNAEAATR | soluble |
| DRILAQERLCRSEERYRLLFEEMMSGCALHELICDRDGNPADYRFLAVNGAFERMTGLRAADIVGKTVLEVMPGTERHWIERYGDVALSGRSAEFEEYAGAIGRYYSVRAYCPERGKFAAVFNDIT | not soluble |
| MGSDKIHHHHHHMSIPSTLLGLSGGQFNEIDWSNCAIVMIDFQNEYVDGAMPLGDAGNKATANARLLLYKARNKNIPIFHVAHHGQDNDKIFNPLSSKVDIIDSLQPLDDEKTIIKMHPNAFYDTELQALITSAGKQQIIFAGFMSHMCVSSSVRAAFDLGFESFVCHDACATRDLPSVAGQVITASTVHDSAMAALQDRFAALVATDKLTNS | not soluble |
| MKIEIKVQIKDGKNSPNLKPGGYIVSASKSFSIDYSKAVAITRNPEIYKNIGIPYIWISKVEGENAISPTNLPKLLHTMISLSKKHPGVTFIIDSVEYLALENGFESTFKFLISAKDHLMLNNSSLVLIIEDKAFKPNELALLKKEFKEISLEHHHHHH | soluble |
| MNYVPDTSVIVDGRFTAFISEREGSNVILPEAMLSEIEHQANEGRAIGFAALEELKKLRKMESEGKISIEIEGERPKEWQIKRAKSGEIDEMIRQVAFQYDATLVTGDIIQRDVAIVKGITVEYLSPPEKIIKNIEE | not soluble |
| MMDPISIINKYYTEGTNQYHILVEHSRDVAALALRIVEIHPELQADRLFVEEAAMLHDIGIFLTDAESIACFGKEPYILHGYMGANILRKEGYPRHALVCERHTGSGLTSEDIAARQIALPPGIYTPQSIEEKIVCYADKFFSKTKLHRQKKLEDVRRSMLSYGADSLRRFDEMHALFKIPLG | soluble |
| MAHHHHHHMDMLHQIYALEYKRNTQRSDRIRDKDKTKIRILFIGGNEFSLLCFKVIRLIIKYVRNDIVLDHVITKSPRKKGRHLKLKKSHIEEEAEKEKIKIFYYDKIRNDTYMLKNETFDLCISASFGEIFNASFFKNIASNVYTLHPSLLPLYRGASPIQRSLLNNESLFGYSIFLTNLRIDAGPVLIRSPHTFGDAFNFNDIITILFTLGSLHLMRHIFFLANYKLGSTNGELQRTVESPNPSTISTHNNNKHLKIRHLLYDEENITPHNVKKKQFMLHTDIGQDKMNYAWLRNYLMLSSTHNNNTYAPKIKSEERYVCFFCSTALHIHNKVRGFINWPKVECTLYLVHKGGLKAMEVKLIKTSQESGDHISHQHLHQFKHLDALQSHKCFDGIPRKLAIFNRGAINILCKDNSLLKIYKLQRKNKKIMDASSFFNSINGVDLLY | not soluble |
| MVRIEVIDIEKPEGVEVIIGQGNFSIFTVDDLARALLTAVPGIKFGIAMNEAKPQLTRYTGNDPELEALAAKNAVKIGAGHVFVILMKNAYPINVLNTIKNHPAVAMIYGASENPFQVIVAETELGRAVIGVVDGKAANKIETDEQKKERRELVEKIGYKID | soluble |
| MSLCLSAQRLGEEPRVNSTGRYSGPMRVLHLASEVFPFSRSGGLGDVLGALPAVQARLGEDAEVTVLSPWYASLQGEPQELWRGEAWGEQAWLGELRQDGVRYLFLGLNEFQRPGLYHPDDVERFCAFGRAALPALDAVGVTPDVLHGHDWQAGLVVAHARLRGLRTAFSVHNLQYQGRWNLHEAAGWTGLPDWTFGPDGVEFFGDLNLMKAGLNFAGHVTTVSPTYAQEITTPQYGEGLEGLLVRLTHEGRLSGILNGLDQDRWNPRTDPDIAAYSDPAGKAGAVKALRQEFGLDDAPILATVSRLADQKGMDLLITALPELVRDWNVVVLGGGDPLLEAALTGWANHPRVAFASGMNEPLAHRIYAGAHAFAMPSRFEPCGLSQLIAMRYGTLPIVRETGGLADTVPPEVGFRFADATAPAFLQACREAQAAFQDPAQWQTRATRAMSLDFSWDGPARQYLELYRGLEGHHHHHH | soluble |
| MSIKVDMSLDCKGLACPMPIVKTKKAIEGLASGQVIEVKATDKGSTVDIKSWANKVGHQYIGTKHEGDILMHYVRKAHEHEVNEVVKYPHTITNTELEEILVSGEECTVLDVREAAEFAFGHIPSATSMPLGELESLVLDKTKQIYVVCRTGNRSDVACQMLKEKGYTNVKNVIPGMIEWQGNIENLEHHHHHH | soluble |
| GMAEEKKKKLSIIVFSGTIDKLMPVGILTSGAAASGYEVNLFFTFWGLQAITKRSLNSQQPPQIDKNYEQMGPIMMQKMQEMKYPMWHQLVQQAKEIGEVKVFACSTTMEFFGIKREDLAEFVDDVVGVATFLDRAEGGTTLFI | soluble |
